# Source: the RNAGym collection of RNA variant scans (doi:10.7554/elife.80360)
# B1: Hairpin Ribozyme (parent)
# chain: GUCCUCUUUCACGUGCGCGUGAAAGAGAGAAGUGAACCAGAGAAACACACGUUGUGGUAUAUUACCUGGUA
# Variants of: B1
# Assay: self-cleavage, relative activity (ratio to wild type); higher = more cleavage; co-transcriptional
row,Variant,self-cleavage
1,GUCCUCUUUCACGUGCGCGUGAAAGAGAGAAGUGAACCAGAGAAACGCAUGUUGUGGUAUAUUACCUGGUA [A47G C50U],0.101
2,GUCCUCUUUCACGUGCGCGUGAAAGAGAGAAGUGAACCAGAGAAACCCACGUUGUGGUAUAUUACCUGGCA [A47C U70C],0.298
3,GUCCUCUUUCACGUGCGCGUGAAAGAGAGAAGUGAACCAGAGAAACCCACGUUGUGGUAUAUUACCUGCUA [A47C G69C],0.196
4,GUCCUCUUUCACGUGCGCGUGAAAGAGAGAAGUGAACCAGAGAAACCCACGCUGUGGUAUAUUACCUGGUA [A47C U52C],0.376
5,GUCCUCUUUCACGUGCGCGUGAAAGAGAGAAGUGAACCAGAGAAACCCACGGUGUGGUAUAUUACCUGGUA [A47C U52G],0.231
6,GUCCUCUUUCACGUGCGCGUGAAAGAGAGAAGUGAACCAGAGAAACCCACGUUGUAGUAUAUUACCUGGUA [A47C G56A],0.233
7,GUCCUCUUUCACGUGCGCGUGAAAGAGAGAAGUGAACCAGAGAAACCCAUGUUGUGGUAUAUUACCUGGUA [A47C C50U],0.303
8,GUCCUCUUUCACGUGCGCGUGAAAGAGAGAAGUGAACCAGAGAAACCCACGUUGUGGAAUAUUACCUGGUA [A47C U58A],0.316
9,GUCCUCUUUCACGUGCGCGUGAAAGAGAGAAGUGAACCAGAGAAACCCACGUUGGGGUAUAUUACCUGGUA [A47C U55G],0.136
10,GUCCUCUUUCACGUGCGCGUGAAAGAGAGAAGUGAACCAGAGAAACCCACGUUGUGGUAUAUUACCUAGUA [A47C G68A],0.268
11,GUCCUCUUUCACGUGCGCGUGAAAGAGAGAAGUGAACCAGAGAAACCCACGUUGUGGUAUAUUACCUCGUA [A47C G68C],0.195
12,GUCCUCUUUCACGUGCGCGUGAAAGAGAGAAGUGAACCAGAGAAACGCACGUUGUGGUAUAUUACCUGGUA [A47G],0.162
13,GUCCUCUUUCACGUGCGCGUGAAAGAGAGAAGUGAACCAGAGAAACCCACGUUGUGGUAUAUUACCUGGUA [A47C],0.335
14,GUCCUCUUUCACGUGCGCGUGAAAGAGAGAAGUGAACCAGAGAAACCCACGUUGUGGUCUAUUACCUGGUA [A47C A59C],0.19
15,GUCCUCUUUCACGUGCGCGUGAAAGAGAGAAGUGAACCAGAGAAACCCACGUUGUGGUUUAUUACCUGGUA [A47C A59U],0.112
16,GUCCUCUUUCACGUGCGCGUGAAAGAGAGAAGUGAACCAGAGAAACCCACGUUGUGGUAUAUUAUCUGGUA [A47C C65U],0.219
17,GUCCUCUUUCACGUGCGCGUGAAAGAGAGAAGUGAACCAGAGAAACCCACGUUAUGGUAUAUUACCUGGUA [A47C G54A],0.208
18,GUCCUCUUUCACGUGCGCGUGAAAGAGAGAAGUGAACCAGAGAAACGCACGUUGUGGUAUAUUACCUGGUC [A47G A71C],0.599
19,GUCCUCUUUCACGUGCGCGUGAAAGAGAGAAGUGAACCAGAGAAACGCACGUUGUGGUAUAUUACCUGGUU [A47G A71U],0.221

row,Variant,self-cleavage
1,GUCCUCUUUCACGUGCGCGUGAAAGAGAGAAGUGAACCAGAGAAACGCGCGUUGUGGUAUAUUACCUGGUA [A47G A49G],0.129
2,GUCCUCUUUCACGUGCGCGUGAAAGAGAGAAGUGAACCAGAGAAACGCCCGUUGUGGUAUAUUACCUGGUA [A47G A49C],0.307
3,GUCCUCUUUCACGUGCGCGUGAAAGAGAGAAGUGAACCAGAGAAACCCACGUUGUGGUAUAUUACCUGGUG [A47C A71G],0.344
4,GUCCUCUUUCACGUGCGCGUGAAAGAGAGAAGUGAACCAGAGAAACCCACGUUGUGGUAUAUUACCUGGUU [A47C A71U],0.147
5,GUCCUCUUUCACGUGCGCGUGAAAGAGAGAAGUGAACCAGAGAAACCCACGUUGUGGUAGAUUACCUGGUA [A47C U60G],0.324
6,GUCCUCUUUCACGUGCGCGUGAAAGAGAGAAGUGAACCAGAGAAACCCACGUUGUGGUAAAUUACCUGGUA [A47C U60A],0.219
7,GUCCUCUUUCACGUGCGCGUGAAAGAGAGAAGUGAACCAGAGAAACCCUCGUUGUGGUAUAUUACCUGGUA [A47C A49U],0.171
8,GUCCUCUUUCACGUGCGCGUGAAAGAGAGAAGUGAACCAGAGAAACGCACGUUGUGGUAUAUUAACUGGUA [A47G C65A],0.0744
9,GUCCUCUUUCACGUGCGCGUGAAAGAGAGAAGUGAACCAGAGAAACGUACGUUGUGGUAUAUUACCUGGUA [A47G C48U],0.185
10,GUCCUCUUUCACGUGCGCGUGAAAGAGAGAAGUGAACCAGAGAAACCCACGUUGUGGUAUAUUGCCUGGUA [A47C A64G],0.265
11,GUCCUCUUUCACGUGCGCGUGAAAGAGAGAAGUGAACCAGAGAAACCCACGUUGUGGUAUAUUCCCUGGUA [A47C A64C],0.233
12,GUCCUCUUUCACGUGCGCGUGAAAGAGAGAAGUGAACCAGAGAAACGCACGUUGUGGUAUAUUACUUGGUA [A47G C66U],0.239
13,GUCCUCUUUCACGUGCGCGUGAAAGAGAGAAGUGAACCAGAGAAACGCACGUUGUGGUAUAUUUCCUGGUA [A47G A64U],0.167
14,GUCCUCUUUCACGUGCGCGUGAAAGAGAGAAGUGAACCAGAGAAACCCACGUUGUGGUAUCUUACCUGGUA [A47C A61C],0.152
15,GUCCUCUUUCACGUGCGCGUGAAAGAGAGAAGUGAACCAGAGAAACCCACGUUGUGGUAUAUUACUUGGUA [A47C C66U],0.155
16,GUCCUCUUUCACGUGCGCGUGAAAGAGAGAAGUGAACCAGAGAAACCCACGUUGUGGUAUAUUACGUGGUA [A47C C66G],0.17
17,GUCCUCUUUCACGUGCGCGUGAAAGAGAGAAGUGAACCAGAGAAACCCACGUUGUGCUAUAUUACCUGGUA [A47C G57C],0.0853
18,GUCCUCUUUCACGUGCGCGUGAAAGAGAGAAGUGAACCAGAGAAACCCACGUUGUGUUAUAUUACCUGGUA [A47C G57U],0.275
19,GUCCUCUUUCACGUGCGCGUGAAAGAGAGAAGUGAACCAGAGAAACCCACGUUGUGGUAUACUACCUGGUA [A47C U62C],0.187
